Tests used:
Assay in all cases: affinity capture from mixture of 54 pTyr peptides, PRM-MS
[1] = target: BTK (pTyr551) peptide YVLDDEpYTSSVGSK
[2] = target: DDR1 (pTyr796/797) peptide NLYAGDpYpYR
[3] = target: DDR2 (pTyr740/741) peptide NLYSGDpYpYR
[4] = target: EPHA1 (pTyr781) peptide LLDDFDGTpYETQGGK
[5] = target: EPHA2 (pTyr772) peptide …pYTTSGGK
[6] = target: EPHA6 (pTyr830) peptide …pYTTTGGK
[7] = target: EPHA8 (pTyr793) peptide …pYTTTGGK
[8] = target: EPHB2 (pTyr780) peptide …pYTSALGGK
[9] = target: EPHB3 (pTyr792) peptide …pYTSSLGGK
[10] = target: ERBB2 (pTyr877) peptide LLDIDETEpYHADGGK
[11] = target: ERBB3 (pTyr866) peptide QLLpYSEAK
[12] = target: FGFR1 (pTyr653/654) peptide DIHHIDpYpYK
[13] = target: FGFR2 (pTyr656/657) peptide DINNIDpYpYK
[14] = target: FGFR3 (pTyr647/648) peptide DVHNLDpYpYK
[15] = target: FGFR4 (pTyr642/643) peptide GVHHIDpYpYK
[16] = target: INSRR (pTyr1145/1146) peptide DVYETDpYpYR
[17] = target: JAK1 (pTyr1034/1035) peptide EpYpYTVK
[18] = target: JAK2 (pTyr221) peptide IQDpYHILTR
[19] = target: JAK3 (pTyr980/981) peptide DpYpYVVR
[20] = target: LMTK2 (pTyr295) peptide EDpYIETDDK
[21] = target: LMTK3 (pTyr296/297) peptide EDpYpYLTPER
[22] = target: MET (pTyr1234/1235) peptide EpYpYSVHNK
[23] = target: NTRK1 (pTyr680/681) peptide DIYSTDpYpYR
[24] = target: NTRK2 (pTyr706/707) peptide DVYSTDpYpYR
[25] = target: PTK7 (pTyr960/961) peptide DVYNSEpYpYHFR
[26] = target: RON (pTyr1238/1239) peptide EpYpYSVQQHR
[27] = target: ROR1 (pTyr645/646) peptide EIYSADpYpYR
[28] = target: ROR2 (pTyr645/646) peptide EVYAADpYpYK
[29] = target: TEC (pTyr519) peptide YVLDDQpYTSSSGAK
[30] = target: TXK (pTyr420) peptide YVLDDEpYVSSFGAK
[31] = target: TYK2 (pTyr1054/1055) peptide AVPEGHEpYpYR
[32] = target: BLK (pTyr389) peptide IIDSEpYTAQEGAK
[33] = target: BMX (pTyr566) peptide YVLDDQpYVSSVGTK
[34] = target: EPHA3 (pTyr779) peptide …pYTTR
[35] = target: EPHB1 (pTyr778) peptide …pYTSSLGGK
[36] = target: EPHB4 (pTyr774) peptide …pYTSSLGGK
[37] = target: FER (pTyr714) peptide QEDGGVpYSSSGLK
[38] = target: FES (pTyr713) peptide EEADGVpYAASGGLR
[39] = target: FRK (pTyr387) peptide VDNEDIpYESR
[40] = target: GSK3 (pTyr279/216) peptide GEPNVSpYICSR
[41] = target: HCK (pTyr411) peptide VIEDNEpYTAR
[42] = target: ITK (pTyr512) peptide FVLDDQpYTSSTGTK
[43] = target: KIT (pTyr823) peptide NDSNpYVVK
[44] = target: MERTK (pTyr753/754) peptide IYSGDpYpYR
[45] = target: MUSK (pTyr755/756) peptide NIYSADpYpYK
[46] = target: PGFRB (pTyr857) peptide DSNpYISK
[47] = target: RET (pTyr905) peptide DVYEEDSpYVK
[48] = target: SRC (pTyr419) peptide LIEDNEpYTAR
[49] = target: SRMS (pTyr380) peptide DDIpYSPSSSSK
[50] = target: TIE1 (pTyr1007) peptide GEEVpYVK
[51] = target: TIE2 (pTyr992) peptide GQEVpYVK
[52] = target: VGFR1 (pTyr1053) peptide NPDpYVR
[53] = target: VGFR2 (pTyr1059) peptide DPDpYVR

## DM human Src SH2 Superbinder expressed with His6 and GST tags (designed binder)
[1]
  PRM signal peak area: 18200
[2]
  PRM signal peak area: 43200
[3]
  PRM signal peak area: 16200
[4]
  PRM signal peak area: 12300
[5]
  PRM signal peak area: 4860
[6]
  PRM signal peak area: 51100
[7]
  PRM signal peak area: 57100
[8]
  PRM signal peak area: 98000
[9]
  PRM signal peak area: 14700
[10]
  PRM signal peak area: 4640
[11]
  PRM signal peak area: 152000
[12]
  PRM signal peak area: 29000
[13]
  PRM signal peak area: 39500
[14]
  PRM signal peak area: 64600
[15]
  PRM signal peak area: 30000
[16]
  PRM signal peak area: 7790
[17]
  PRM signal peak area: 46200
[18]
  PRM signal peak area: 39200
[19]
  PRM signal peak area: 10500
[20]
  PRM signal peak area: 1120
[21]
  PRM signal peak area: 78600
[22]
  PRM signal peak area: 70800
[23]
  PRM signal peak area: 30200
[24]
  PRM signal peak area: 22800
[25]
  PRM signal peak area: 4840
[26]
  PRM signal peak area: 17400
[27]
  PRM signal peak area: 27700
[28]
  PRM signal peak area: 60500
[29]
  PRM signal peak area: 4820
[30]
  PRM signal peak area: 46100
[31]
  PRM signal peak area: 9680

## TrM human Src SH2 Superbinder expressed with His6 and GST tags (designed binder)
[32]
  PRM signal peak area: 156000
[33]
  PRM signal peak area: 151000
[1]
  PRM signal peak area: 1.31e+06
[2]
  PRM signal peak area: 338000
[3]
  PRM signal peak area: 185000
[4]
  PRM signal peak area: 188000
[5]
  PRM signal peak area: 347000
[34]
  PRM signal peak area: 394000
[6]
  PRM signal peak area: 288000
[7]
  PRM signal peak area: 585000
[35]
  PRM signal peak area: 206000
[8]
  PRM signal peak area: 215000
[9]
  PRM signal peak area: 260000
[36]
  PRM signal peak area: 134000
[10]
  PRM signal peak area: 42700
[11]
  PRM signal peak area: 164000
[37]
  PRM signal peak area: 27400
[38]
  PRM signal peak area: 25100
[12]
  PRM signal peak area: 51200
[13]
  PRM signal peak area: 87100
[14]
  PRM signal peak area: 258000
[15]
  PRM signal peak area: 36100
[39]
  PRM signal peak area: 291000
[40]
  PRM signal peak area: 48300
[41]
  PRM signal peak area: 384000
[16]
  PRM signal peak area: 20800
[42]
  PRM signal peak area: 403000
[17]
  PRM signal peak area: 110000
[18]
  PRM signal peak area: 85500
[19]
  PRM signal peak area: 19700
[43]
  PRM signal peak area: 235000
[20]
  PRM signal peak area: 20900
[21]
  PRM signal peak area: 376000
[44]
  PRM signal peak area: 26500
[22]
  PRM signal peak area: 111000
[45]
  PRM signal peak area: 178000
[23]
  PRM signal peak area: 103000
[24]
  PRM signal peak area: 115000
[46]
  PRM signal peak area: 398000
[25]
  PRM signal peak area: 8860
[47]
  PRM signal peak area: 883000
[26]
  PRM signal peak area: 44300
[27]
  PRM signal peak area: 177000
[28]
  PRM signal peak area: 334000
[48]
  PRM signal peak area: 99500
[49]
  PRM signal peak area: 479000
[29]
  PRM signal peak area: 781000
[50]
  PRM signal peak area: 409000
[51]
  PRM signal peak area: 210000
[30]
  PRM signal peak area: 272000
[31]
  PRM signal peak area: 53500
[52]
  PRM signal peak area: 158000
[53]
  PRM signal peak area: 197000

## wild-type (wt) human Src SH2 domain expressed with His6 and GST tags
[1]
  PRM signal peak area: 4210
[2]
  PRM signal peak area: 47700
[3]
  PRM signal peak area: 15300
[6]
  PRM signal peak area: 2740
[8]
  PRM signal peak area: 10800
[11]
  PRM signal peak area: 41900
[12]
  PRM signal peak area: 28500
[13]
  PRM signal peak area: 51600
[14]
  PRM signal peak area: 104000
[15]
  PRM signal peak area: 29800
[17]
  PRM signal peak area: 58300
[19]
  PRM signal peak area: 23300
[21]
  PRM signal peak area: 29900
[22]
  PRM signal peak area: 26800
[45]
  PRM signal peak area: 47600
[23]
  PRM signal peak area: 21700
[24]
  PRM signal peak area: 39600
[26]
  PRM signal peak area: 5430
[27]
  PRM signal peak area: 32400
[28]
  PRM signal peak area: 85900
[30]
  PRM signal peak area: 1520
[31]
  PRM signal peak area: 11600
